In paper PMC9426574:

Columns and labels:
[1] = target: HRP-labeled human S100A7 (UniProt P31151); assay: ELISA; settings: His-tagged TdfJ on NTA-coated 96-well plate; absorbance at 450 nm; parent: est. 100; read off a plot
[2] = target: transferrin (Homo sapiens) (UniProt P02787); settings: cited from earlier work
[3] = target: His-tagged wild-type TdfJ (purified) (Neisseria gonorrhoeae); assay: SPR; His-tagged TdfJ (89 μg/mL) immobilised on Ni-NTA sensor chip, free NTA blocked with His-tagged streptavidin; S100A7 injected at 1, 10, 50, 100, 500 nM, 20 μL/min; PBS pH 8.0; OpenSPR XT; steady-state, single-site fit (EC50 analysis setting)
[4] = target: His-tagged TdfJ K261P/R262P (purified) (Neisseria gonorrhoeae); assay: as above

Sequence of UniProt P02787 (P02787 20-698): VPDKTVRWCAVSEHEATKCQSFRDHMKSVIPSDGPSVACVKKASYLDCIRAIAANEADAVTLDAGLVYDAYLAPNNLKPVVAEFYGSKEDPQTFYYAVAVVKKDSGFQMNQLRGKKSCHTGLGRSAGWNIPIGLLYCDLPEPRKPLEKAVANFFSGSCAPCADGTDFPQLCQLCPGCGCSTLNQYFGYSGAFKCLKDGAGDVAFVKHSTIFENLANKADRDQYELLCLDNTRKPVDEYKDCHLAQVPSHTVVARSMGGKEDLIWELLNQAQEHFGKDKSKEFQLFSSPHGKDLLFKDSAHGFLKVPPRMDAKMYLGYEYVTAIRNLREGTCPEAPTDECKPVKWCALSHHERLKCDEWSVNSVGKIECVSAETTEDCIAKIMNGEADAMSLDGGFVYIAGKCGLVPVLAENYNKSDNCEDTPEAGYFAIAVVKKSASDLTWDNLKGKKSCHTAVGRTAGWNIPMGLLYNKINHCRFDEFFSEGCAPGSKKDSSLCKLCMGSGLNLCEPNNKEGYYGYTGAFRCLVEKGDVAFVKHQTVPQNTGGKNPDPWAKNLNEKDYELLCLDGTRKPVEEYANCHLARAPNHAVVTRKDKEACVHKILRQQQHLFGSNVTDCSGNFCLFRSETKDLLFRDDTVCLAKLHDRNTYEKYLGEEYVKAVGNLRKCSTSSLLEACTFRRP

| Substance | percent of parent (% of Wildtype) [1] | other results |
| --- | --- | --- |
| His-tagged wild-type TdfJ (purified) Q265P | 80 | – |
| His-tagged wild-type TdfJ (purified) K256E | 87 | – |
| His-tagged wild-type TdfJ (purified) K261P; R262P | 3 | – |
| TbpA (from UniProt Q01996) | – | Kd [2]: 10 nM |
| Human S100A7 (from UniProt P31151 1-101) (natural protein) | – | Kd [3]: 41 nM; SPR response at 1 nM S100A7 [3]: 220 RU; SPR response at 500 nM S100A7 [3]: 900 RU; SPR response at equilibrium at 500 nM S100A7 [4]: 325 RU |
| His-tagged wild-type TdfJ (purified) L266P | 74 | – |
| His-tagged wild-type TdfJ (purified) Q265P; L266P | 20 | – |
| His-tagged wild-type TdfJ (purified) R262P | 79 | – |
